Data from US20200062804A1 (ADRX, published 2020).
Several values for one entry are separate records, joined by “and”; a condition that tells them apart may be missing. Identical values can stand only once. Non-standard residues stand in square brackets, D forms with d. No end group written: not given here. NMeI = CC[C@H](C)[C@H](NC)C(=O)O; hArg = N=C(N)NCCCC[C@H](N)C(=O)O; Chg = N[C@H](C(=O)O)C1CCCCC1; Phg = N[C@H](C(=O)O)c1ccccc1

T1: Nat1 (LTIITLE) (also: TFA salt)
T1 peptide: LTIITLE


Target: T1, Nat1 (LTIITLE)
Test: cell-based or functional assay

Row | Binder | IC50, Thiofiavin T aggregation assay
1 | IHIEIK | 723 nM
2 | LTRITLE | 1680 nM
3 | TYVYRRR | 3660 nM
4 | LTIQLWH | 481 nM
5 | IRIRAAR | 451 nM
6 | LLIAYHR | 466 nM
7 | LSIRQH | 945 nM
8 | IRVYKYS | 480 nM
9 | LYIRHK | 316 nM
10 | LHIEHR | 657 nM
11 | IWIRRWR | 1900 nM
12 | LLIKYAR | 301 nM
13 | WRIRRYR | 514 nM
14 | LTIRTLH | 537 nM
15 | IRARRYR | 1250 nM
16 | LR[NMeI]KYHR [LR(N-Me)IKYHR] | 334 nM
17 | WTIRTWH | 784 nM
18 | IRFRRYR | 496 nM
19 | LTIMLWH | 425 nM
20 | I[hArg]I[hArg]RWR [Ile-homoArg-Ile-homoArg-Arg-Trp-Arg] | 49 nM
21 | WTIKLTH | 720 nM

Row | Binder | IC50, Thiofiavin T aggregation assay
22 | LTIRTWH | 295 nM
23 | IQIYRYK | 444 nM
24 | LFIYYQR | 440 nM
25 | IFVYHH | 703 nM
26 | [Chg]R[Chg]RRYR [Chg-Arg-Chg-Arg-Arg-Tyr-Arg] | 67 nM
27 | TRIYRVK | 3740 nM
28 | [Phg]R[Phg]RRYR [Phg-Arg-Phg-Arg-Arg-Tyr-Arg] | 5950 nM
29 | TRIRFYR | 64 nM
30 | LLAKYHR | 1730 nM
31 | WTIMLWH | 525 nM
32 | LFIFYHR | 476 nM
33 | TYIRYLR | 412 nM
34 | ALIKYHR | 629 nM
35 | LYIRTWH | 302 nM
36 | AYYYRHR | 2120 nM
37 | LYIFRHT | 363 nM
38 | IRIYRYK | 60 nM
39 | TYIYRQR | 5170 nM
40 | LTIRLTH | 329 nM
41 | TLIIYHR | 357 nM

The next lines start with the values.

Row | IC50, Thiofiavin T aggregation assay | Binder
42 | 296 nM | [dR][dQ][dH][dY][dH][dW][dR] [rqhyhwr]
43 | 1340 nM | [dI][dL][dK][dW][dL][dW] [ilkwlw]
44 | 338 nM | [dS][dH][dW][dR][dR][dH][dR] [shwrrhr]
45 | 420 nM | WTRIYYH
46 | 702 nM | [dR][dL][dK][dW][dR][dW] [rlkwrw]
47 | 2270 nM | [dS][dH][dW][dR][dH][dH][dR] [shwrhhr]
48 | 1600 nM | YYIRTYH
49 | 338 nM | [dY][dW][dQ][dW][dR][dQ][dS] [ywqwrqs]
50 | 906 nM | [dF][dA][dR][dA][dH][dR][dR] [farahrr]
51 | 716 nM | [dQ][dL][dK][dW][dL][dH] [qlkwlh]
52 | 2720 nM | [dR][dQ][dW][dY][dR][dW][dQ] [rqwyrwq]
53 | 49 nM | [dR][dW][dR][dY][dL][dR][dR] [rwrylrr]
54 | 1060 nM | [dK][dL][dK][dW][dL][dW] [klkwlw]
55 | 354 nM | [dY][dQ][dW][dQ][dY][dQ][dR] [yqwqyqr]
56 | 288 nM | WYIRLWH
57 | 398 nM | WTRILWH
58 | 369 nM | WYIRLTH
59 | 5700 nM | [dQ][dV][dR][dY][dH][dK][dN] [qvryhkn]
60 | 494 nM | YYIRYYK
61 | 427 nM | WTKITLH
62 | 1340 nM | WTRITLE
63 | 293 nM | [dF][dW][dR][dA][dH][dR][dR] [fwrahrr]
64 | 458 nM | [dF][dW][dR][dW][dH][dA][dA] [fwrwhaa]
65 | 3140 nM | [dQ][dW][dR][dW][dR][dH][dR] [qwrwrhr]
66 | 472 nM | [dW][dW][dR][dF][dH][dW][dR] [wwrfhwr]
67 | 824 nM | YTYMLWK
68 | 473 nM and 214 nM | WTIRYYH
69 | 51 nM | [dR][dF][dH][dY][dF][dR][dK] [rfhyfrk]
70 | 301 nM | [dS][dW][dR][dW][dH][dH][dR] [swrwhhr]
